Columns and labels:
[1] = biological target: T1, TRPA1 (Homo sapiens, UniProt O75762); assay: Ion channel panel (IonWorks Barracuda): TRPA1; assay type: cell-based; conditions: 100% = no change, <100% = inhibition
T1 construct: host or cells: HEK293 or CHO
Summary of the method: (§1)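 Peptides were tested in duplicate at final 20 μM and 200 nM, with concentration set by amino acid analysis, in HEPES-buffered saline. They were applied for at least 5 min to HEK293 or CHO cells transfected with each channel. Currents were expressed as % inhibition, 1-(Ipeptide/Icontrol)×100, or % activation, Ipeptide/Icontrol×100, against a channel-matched reference compound.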

[2] = biological target: T2, NR2A (Homo sapiens, UniProt Q12879); assay: Ion channel panel (IonWorks Barracuda): NR2A; assay type: cell-based; conditions: 100% = no change, <100% = inhibition
T2 construct: host or cells: HEK293 or CHO
Summary of the method: as §1

[3] = biological target: T3, α3β4 (Homo sapiens, UniProt P30926+P32297); assay: Ion channel panel (IonWorks Barracuda): α3β4; assay type: cell-based; conditions: 100% = no change, <100% = inhibition
T3 construct: host or cells: HEK293 or CHO
Summary of the method: as §1

[4] = tested on: GABA; assay: Ion channel panel (IonWorks Barracuda): GABA; assay type: cell-based; conditions: 100% = no change, <100% = inhibition
Summary of the method: as §1

[5] = biological target: T4, Kir2.1 (Homo sapiens, UniProt P63252); assay: Ion channel panel (IonWorks Barracuda): Kir2.1; assay type: cell-based; conditions: 100% = no change, <100% = inhibition
T4 construct: host or cells: HEK293 or CHO
Summary of the method: as §1

[6] = biological target: T5, Nav1.7 (Homo sapiens, UniProt Q15858); assay: cell-based; assay type: cell-based; conditions: 100% = no change; for Activity of Nav1.7 with peptide, expressed as a percentage of the reference compound: peptide at 0.2 μM; for Activity of Nav1.7 with peptide (percentage of the reference compound): peptide at 20 μM
T5 construct: host or cells: HEK293 or CHO

[7] = biological target: T6, α4β2 (Homo sapiens, UniProt P17787+P43681); assay: Ion channel panel (IonWorks Barracuda): α4β2; assay type: cell-based; conditions: 100% = no change, <100% = inhibition
T6 construct: host or cells: HEK293 or CHO
Summary of the method: as §1

[8] = biological target: T7, NR2B (Homo sapiens, UniProt Q13224); assay: Ion channel panel (IonWorks Barracuda): NR2B; assay type: cell-based; conditions: 100% = no change, <100% = inhibition
T7 construct: host or cells: HEK293 or CHO
Summary of the method: as §1

[9] = biological target: Nav1.5 (Homo sapiens, UniProt Q14524); assay: in vitro; conditions: 100% = no change; for Activity of Nav1.5 with peptide, expressed as a percentage of the reference compound: peptide at 0.2 μM; for Activity of Nav1.5 with peptide (percentage of the reference compound): peptide at 20 μM
Summary of the method: as §1

[10] = biological target: hERG (Homo sapiens, UniProt Q12809); assay: in vitro; conditions: 100% = no change, <100% = inhibition
Summary of the method: as §1

[11] = biological target: T8, 5HT3a (Homo sapiens, UniProt P46098); assay: Ion channel panel (IonWorks Barracuda): 5HT3a; assay type: cell-based
T8 construct: host or cells: HEK293 or CHO
T8 sequence (P46098 whole entry, looked up): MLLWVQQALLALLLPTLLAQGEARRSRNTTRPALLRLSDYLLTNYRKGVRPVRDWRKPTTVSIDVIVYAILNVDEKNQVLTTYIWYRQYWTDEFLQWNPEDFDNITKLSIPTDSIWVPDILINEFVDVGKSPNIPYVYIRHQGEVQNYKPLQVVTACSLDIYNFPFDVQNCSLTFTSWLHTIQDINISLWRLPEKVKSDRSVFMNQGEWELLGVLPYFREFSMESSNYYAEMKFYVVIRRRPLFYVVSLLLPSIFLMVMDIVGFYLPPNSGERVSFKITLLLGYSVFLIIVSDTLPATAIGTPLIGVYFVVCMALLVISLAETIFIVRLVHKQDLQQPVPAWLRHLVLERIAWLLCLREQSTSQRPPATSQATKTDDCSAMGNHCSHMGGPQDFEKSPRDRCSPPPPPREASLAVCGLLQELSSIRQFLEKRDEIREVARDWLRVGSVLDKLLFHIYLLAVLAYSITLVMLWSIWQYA
Summary of the method: as §1

[12] = biological target: T9, TRPV1 (Homo sapiens, UniProt Q8NER1); assay: Ion channel panel (IonWorks Barracuda): TRPV1; assay type: cell-based; conditions: 100% = no change, <100% = inhibition
T9 construct: host or cells: HEK293 or CHO
Summary of the method: as §1

[13] = biological target: T10, Kv1.3 (Homo sapiens, UniProt P22001); assay: cell-based; assay type: cell-based; conditions: 100% = no change, <100% = inhibition
T10 construct: host or cells: HEK293 or CHO
Summary of the method: as §1

[14] = biological target: T11, Kv1.2 (Homo sapiens, UniProt P16389); assay: cell-based; assay type: cell-based; conditions: 100% = no change, <100% = inhibition
T11 construct: host or cells: HEK293 or CHO
Summary of the method: as §1

[15] = biological target: T12, Kv1.1 (Homo sapiens, UniProt Q09470); assay: cell-based; assay type: cell-based; conditions: 100% = no change, <100% = inhibition
T12 construct: host or cells: HEK293 or CHO
Summary of the method: as §1

[16] = biological target: T13, Cav2.1 (Homo sapiens, UniProt O00555); assay: cell-based; conditions: 100% = no change, <100% = inhibition
T13 construct: host or cells: HEK293 or CHO
Summary of the method: as §1

[17] = biological target: T14, Kv2.1 (Homo sapiens, UniProt Q14721); assay: cell-based; conditions: 100% = no change, <100% = inhibition
T14 construct: host or cells: HEK293 or CHO
Summary of the method: as §1

[18] = biological target: T15, Cav2.2 (Homo sapiens, UniProt Q00975); assay: cell-based; conditions: 100% = no change, <100% = inhibition
T15 construct: host or cells: HEK293 or CHO
Summary of the method: as §1

[19] = first of two Nav1.7 columns (probably TP1)
[20] = second of two Nav1.7 columns (probably TP2)
[21] = first of two Nav1.5 columns (probably TP1)
[22] = second of two Nav1.5 columns (probably TP2)

T5 sequence (Q15858 whole entry): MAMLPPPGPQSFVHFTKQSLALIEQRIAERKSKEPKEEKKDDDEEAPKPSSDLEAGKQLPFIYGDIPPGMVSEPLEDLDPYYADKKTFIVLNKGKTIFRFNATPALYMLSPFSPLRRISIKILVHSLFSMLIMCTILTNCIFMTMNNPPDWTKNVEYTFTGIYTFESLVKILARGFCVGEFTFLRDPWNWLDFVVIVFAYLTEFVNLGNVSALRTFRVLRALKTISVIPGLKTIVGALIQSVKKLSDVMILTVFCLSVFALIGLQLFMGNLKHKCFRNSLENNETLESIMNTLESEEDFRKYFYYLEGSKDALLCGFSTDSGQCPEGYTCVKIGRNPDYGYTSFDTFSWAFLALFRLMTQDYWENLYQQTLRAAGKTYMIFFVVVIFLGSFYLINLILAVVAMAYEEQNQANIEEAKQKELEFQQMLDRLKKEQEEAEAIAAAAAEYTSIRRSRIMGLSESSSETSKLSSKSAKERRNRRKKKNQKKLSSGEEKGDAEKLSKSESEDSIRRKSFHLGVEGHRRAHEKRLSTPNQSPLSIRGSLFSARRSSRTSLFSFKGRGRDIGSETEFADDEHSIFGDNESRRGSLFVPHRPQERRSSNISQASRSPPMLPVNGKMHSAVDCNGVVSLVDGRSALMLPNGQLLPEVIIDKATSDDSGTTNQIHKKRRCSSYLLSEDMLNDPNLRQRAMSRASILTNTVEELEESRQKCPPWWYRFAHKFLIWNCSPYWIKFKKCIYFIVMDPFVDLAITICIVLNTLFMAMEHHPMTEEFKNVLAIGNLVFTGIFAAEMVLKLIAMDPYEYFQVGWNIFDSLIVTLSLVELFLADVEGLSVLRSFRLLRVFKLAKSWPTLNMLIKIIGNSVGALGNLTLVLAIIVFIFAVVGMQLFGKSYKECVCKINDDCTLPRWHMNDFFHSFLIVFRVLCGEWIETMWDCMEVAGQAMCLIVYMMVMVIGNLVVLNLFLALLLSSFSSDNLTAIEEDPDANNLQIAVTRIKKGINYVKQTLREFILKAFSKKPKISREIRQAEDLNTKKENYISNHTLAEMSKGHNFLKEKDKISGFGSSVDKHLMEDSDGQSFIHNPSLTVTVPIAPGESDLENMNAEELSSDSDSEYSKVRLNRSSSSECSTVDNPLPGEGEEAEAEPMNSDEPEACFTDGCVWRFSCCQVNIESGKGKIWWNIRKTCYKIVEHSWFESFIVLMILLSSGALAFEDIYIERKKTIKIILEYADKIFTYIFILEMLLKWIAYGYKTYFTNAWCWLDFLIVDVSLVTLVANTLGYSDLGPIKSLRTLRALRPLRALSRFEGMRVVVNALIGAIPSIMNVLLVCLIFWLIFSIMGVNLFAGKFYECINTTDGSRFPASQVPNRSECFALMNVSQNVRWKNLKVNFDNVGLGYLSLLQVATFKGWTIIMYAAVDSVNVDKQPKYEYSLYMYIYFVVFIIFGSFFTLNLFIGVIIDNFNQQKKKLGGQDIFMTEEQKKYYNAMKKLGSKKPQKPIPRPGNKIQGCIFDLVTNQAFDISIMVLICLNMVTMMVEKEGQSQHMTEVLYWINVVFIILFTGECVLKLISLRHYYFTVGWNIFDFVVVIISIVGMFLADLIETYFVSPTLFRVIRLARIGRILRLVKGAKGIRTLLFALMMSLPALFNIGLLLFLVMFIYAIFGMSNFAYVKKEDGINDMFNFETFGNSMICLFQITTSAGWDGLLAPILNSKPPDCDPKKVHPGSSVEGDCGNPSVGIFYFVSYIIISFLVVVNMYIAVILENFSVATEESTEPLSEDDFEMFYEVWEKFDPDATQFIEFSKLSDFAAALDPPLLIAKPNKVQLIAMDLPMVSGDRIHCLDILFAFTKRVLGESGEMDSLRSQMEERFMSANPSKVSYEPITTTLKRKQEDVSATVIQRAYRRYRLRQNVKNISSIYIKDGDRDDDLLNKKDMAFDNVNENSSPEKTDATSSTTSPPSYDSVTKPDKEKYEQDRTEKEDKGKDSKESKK
Sequence of Nav1.5 (Q14524 whole entry): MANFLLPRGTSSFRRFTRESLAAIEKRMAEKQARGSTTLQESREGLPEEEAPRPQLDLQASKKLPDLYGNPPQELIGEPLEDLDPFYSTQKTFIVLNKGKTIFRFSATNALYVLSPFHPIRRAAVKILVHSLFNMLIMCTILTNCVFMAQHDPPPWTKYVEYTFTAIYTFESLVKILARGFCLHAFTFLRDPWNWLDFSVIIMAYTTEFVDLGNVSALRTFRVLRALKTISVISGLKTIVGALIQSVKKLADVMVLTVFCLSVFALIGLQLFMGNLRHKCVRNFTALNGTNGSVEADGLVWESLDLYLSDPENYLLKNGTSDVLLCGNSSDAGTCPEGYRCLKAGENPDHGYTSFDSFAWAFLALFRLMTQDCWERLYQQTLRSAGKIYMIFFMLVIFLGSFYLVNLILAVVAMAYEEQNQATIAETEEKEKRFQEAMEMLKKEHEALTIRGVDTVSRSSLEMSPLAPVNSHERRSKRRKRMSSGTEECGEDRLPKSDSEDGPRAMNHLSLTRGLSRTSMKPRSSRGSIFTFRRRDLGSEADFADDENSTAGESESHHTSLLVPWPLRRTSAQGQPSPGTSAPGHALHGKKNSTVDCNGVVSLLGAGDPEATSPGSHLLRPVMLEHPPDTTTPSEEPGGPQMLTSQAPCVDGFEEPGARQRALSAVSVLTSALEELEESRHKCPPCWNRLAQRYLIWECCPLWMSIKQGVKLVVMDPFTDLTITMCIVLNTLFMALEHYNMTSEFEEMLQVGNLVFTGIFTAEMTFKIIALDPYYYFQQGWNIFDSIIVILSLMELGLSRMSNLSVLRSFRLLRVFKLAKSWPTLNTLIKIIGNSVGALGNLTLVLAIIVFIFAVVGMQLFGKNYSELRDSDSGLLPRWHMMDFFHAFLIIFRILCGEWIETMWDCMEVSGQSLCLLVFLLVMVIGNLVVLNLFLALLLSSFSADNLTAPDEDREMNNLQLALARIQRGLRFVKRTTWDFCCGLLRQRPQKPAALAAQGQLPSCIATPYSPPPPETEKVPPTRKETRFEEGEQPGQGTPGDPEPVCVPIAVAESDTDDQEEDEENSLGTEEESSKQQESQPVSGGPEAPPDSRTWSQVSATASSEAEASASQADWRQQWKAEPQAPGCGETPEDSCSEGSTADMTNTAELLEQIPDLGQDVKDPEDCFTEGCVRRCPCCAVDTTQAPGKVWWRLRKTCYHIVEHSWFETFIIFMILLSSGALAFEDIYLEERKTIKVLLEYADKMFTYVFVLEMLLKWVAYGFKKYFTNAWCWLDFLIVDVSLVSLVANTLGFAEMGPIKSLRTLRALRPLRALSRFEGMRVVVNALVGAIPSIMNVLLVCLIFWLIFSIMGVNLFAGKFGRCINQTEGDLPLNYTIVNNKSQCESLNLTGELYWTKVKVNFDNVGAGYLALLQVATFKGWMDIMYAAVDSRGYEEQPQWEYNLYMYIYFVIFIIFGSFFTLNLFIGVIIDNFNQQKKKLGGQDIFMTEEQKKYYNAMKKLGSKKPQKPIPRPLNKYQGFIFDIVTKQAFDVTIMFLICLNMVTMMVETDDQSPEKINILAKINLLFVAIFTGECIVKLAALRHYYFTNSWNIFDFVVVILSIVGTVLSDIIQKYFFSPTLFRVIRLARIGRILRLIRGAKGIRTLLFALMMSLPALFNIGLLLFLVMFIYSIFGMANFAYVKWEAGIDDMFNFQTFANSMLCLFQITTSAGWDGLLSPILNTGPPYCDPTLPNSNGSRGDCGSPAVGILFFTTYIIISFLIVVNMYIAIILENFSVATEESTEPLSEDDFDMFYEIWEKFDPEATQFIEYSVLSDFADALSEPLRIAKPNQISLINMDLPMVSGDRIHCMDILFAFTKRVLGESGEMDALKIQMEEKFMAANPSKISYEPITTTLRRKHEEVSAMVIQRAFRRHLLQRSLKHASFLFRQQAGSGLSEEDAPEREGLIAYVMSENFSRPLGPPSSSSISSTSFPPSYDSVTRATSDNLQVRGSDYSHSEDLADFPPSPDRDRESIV
T3 sequence (P30926 22-498): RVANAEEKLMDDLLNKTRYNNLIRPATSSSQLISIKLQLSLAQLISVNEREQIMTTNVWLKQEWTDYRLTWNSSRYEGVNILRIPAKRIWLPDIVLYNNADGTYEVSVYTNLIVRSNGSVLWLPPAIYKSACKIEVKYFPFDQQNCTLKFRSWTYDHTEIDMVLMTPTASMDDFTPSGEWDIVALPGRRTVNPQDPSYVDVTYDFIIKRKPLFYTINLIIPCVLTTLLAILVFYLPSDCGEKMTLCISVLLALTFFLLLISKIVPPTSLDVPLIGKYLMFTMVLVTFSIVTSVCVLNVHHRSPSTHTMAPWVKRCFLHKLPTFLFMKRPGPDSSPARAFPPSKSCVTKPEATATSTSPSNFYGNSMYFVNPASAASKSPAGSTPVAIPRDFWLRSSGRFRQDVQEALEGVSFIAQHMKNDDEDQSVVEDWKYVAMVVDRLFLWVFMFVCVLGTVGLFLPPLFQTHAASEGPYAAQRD
T3 sequence (P32297 32-505): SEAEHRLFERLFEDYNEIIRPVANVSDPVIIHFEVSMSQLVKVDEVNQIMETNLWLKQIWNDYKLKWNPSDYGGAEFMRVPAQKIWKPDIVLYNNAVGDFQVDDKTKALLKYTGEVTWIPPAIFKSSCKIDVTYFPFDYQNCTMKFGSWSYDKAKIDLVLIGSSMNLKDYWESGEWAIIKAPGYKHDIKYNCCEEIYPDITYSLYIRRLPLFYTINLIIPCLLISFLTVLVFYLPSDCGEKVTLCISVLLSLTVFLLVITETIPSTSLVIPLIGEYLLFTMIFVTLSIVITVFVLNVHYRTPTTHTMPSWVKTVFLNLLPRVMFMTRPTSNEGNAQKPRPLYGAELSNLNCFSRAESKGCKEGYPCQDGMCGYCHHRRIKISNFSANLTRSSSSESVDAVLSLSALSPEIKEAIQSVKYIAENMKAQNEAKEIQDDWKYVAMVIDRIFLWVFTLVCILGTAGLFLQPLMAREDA

With “38 (GSGIGDPVTCLKSGAICHPVFCPRRYKQIGTCGLPGTKCCKKP) [compound 38]” the “Activity of TRPA1 with peptide, expressed as a percentage of the reference compound” value ([1]; peptide at 0.2 μM) was 138%, the “Activity of TRPA1 with peptide (percentage of the reference compound)” value ([1]; peptide at 20 μM) was 108% and the “Activity of NR2A with peptide, expressed as a percentage of the reference compound” value ([2]; peptide at 0.2 μM) was 100%. The “Activity of NR2A with peptide (percentage of the reference compound)” value ([2]; peptide at 20 μM) was 90%, the “Activity of a3b4 with peptide, expressed as a percentage of the reference compound” value ([3]; peptide at 0.2 μM) was 99% and the “Activity of a3b4 with peptide (percentage of the reference compound)” value ([3]; peptide at 20 μM) was 92%. For the same substance, the “Activity of GABA with peptide, expressed as a percentage of the reference compound” value ([4]; peptide at 0.2 μM) was 121%, the “Activity of GABA with peptide (percentage of the reference compound)” value ([4]; peptide at 20 μM) was 112% and the “Activity of Kir2.1 with peptide, expressed as a percentage of the reference compound” value ([5]; peptide at 0.2 μM) was 88%. The “Activity of Kir2.1 with peptide (percentage of the reference compound)” value ([5]; peptide at 20 μM) was 126%, the “Activity of Nav1.7 with peptide, expressed as a percentage of the reference compound” value [6, 19] was 83% and the “Activity of Nav1.7 with peptide, expressed as a percentage of the reference compound” value [6, 20] was 143%. The “Activity of Nav1.7 with peptide (percentage of the reference compound)” value [6, 19] was 86%, the “Activity of Nav1.7 with peptide (percentage of the reference compound)” value [6, 20] was 86% and the “Activity of a4b2 with peptide, expressed as a percentage of the reference compound” value ([7]; peptide at 0.2 μM) was 107%. The “Activity of a4b2 with peptide (percentage of the reference compound)” value ([7]; peptide at 20 μM) was 88%, the “Activity of NR2B with peptide, expressed as a percentage of the reference compound” value ([8]; peptide at 0.2 μM) was 83% and the “Activity of NR2B with peptide (percentage of the reference compound)” value ([8]; peptide at 20 μM) was 88%. The “Activity of Nav1.5 with peptide, expressed as a percentage of the reference compound” value [9, 21] was 124%, the “Activity of Nav1.5 with peptide, expressed as a percentage of the reference compound” value [9, 22] was 124% and the “Activity of Nav1.5 with peptide (percentage of the reference compound)” value [9, 21] was 107%. For the same substance, the “Activity of Nav1.5 with peptide (percentage of the reference compound)” value [9, 22] was 112%, the “Activity of hERG with peptide, expressed as a percentage of the reference compound” value ([10]; peptide at 0.2 μM) was 86% and the “Activity of hERG with peptide (percentage of the reference compound)” value ([10]; peptide at 20 μM) was 71%. The “Activity of 5HT3a with peptide (percentage of the reference compound)” value [11] was 98%, the “Activity of 5HT3a with peptide, expressed as a percentage of the reference compound” value [11] was 97% and the “Activity of TRPV1 with peptide, expressed as a percentage of the reference compound” value ([12]; peptide at 0.2 μM) was 98%. For the same substance, the “Activity of TRPV1 with peptide (percentage of the reference compound)” value ([12]; peptide at 20 μM) was 76%, the “Activity of Kv1.3 with peptide, expressed as a percentage of the reference compound” value ([13]; peptide at 0.2 μM) was 101% and the “Activity of Kv1.3 with peptide (percentage of the reference compound)” value ([13]; peptide at 20 μM) was 31%. The “Activity of Kv1.2 with peptide, expressed as a percentage of the reference compound” value ([14]; peptide at 0.2 μM) was 100%, the “Activity of Kv1.2 with peptide (percentage of the reference compound)” value ([14]; peptide at 20 μM) was 84% and the “Activity of Kv1.1 with peptide, expressed as a percentage of the reference compound” value ([15]; peptide at 0.2 μM) was 97%. The “Activity of Kv1.1 with peptide (percentage of the reference compound)” value ([15]; peptide at 20 μM) was 73%, the “Activity of Cav2.1 with peptide, expressed as a percentage of the reference compound” value ([16]; peptide at 0.2 μM) was 95% and the “Activity of Cav2.1 with peptide (percentage of the reference compound)” value ([16]; peptide at 20 μM) was 93%. The “Activity of Kv2.1 with peptide, expressed as a percentage of the reference compound” value ([17]; peptide at 0.2 μM) was 100%, the “Activity of Kv2.1 with peptide (percentage of the reference compound)” value ([17]; peptide at 20 μM) was 125% and the “Activity of Cav2.2 with peptide, expressed as a percentage of the reference compound” value ([18]; peptide at 0.2 μM) was 117%. For the same substance, the “Activity of Cav2.2 with peptide (percentage of the reference compound)” value ([18]; peptide at 20 μM) was 89%.

Source: patent US20200262877A1, “ION CHANNEL-BINDING PEPTIDES AND METHODS OF USE THEREOF” (priority 2017, published 2020)
